Assay [1] has as its target T1, rat GDNF receptor-alpha (GDNFR-α) expressed on cells from the rat cDNA clone (rat, UniProt Q62997 25-430, GPI-anchored to the cell membrane).
T1 construct: also called rGDNFR-α
T1 sequence: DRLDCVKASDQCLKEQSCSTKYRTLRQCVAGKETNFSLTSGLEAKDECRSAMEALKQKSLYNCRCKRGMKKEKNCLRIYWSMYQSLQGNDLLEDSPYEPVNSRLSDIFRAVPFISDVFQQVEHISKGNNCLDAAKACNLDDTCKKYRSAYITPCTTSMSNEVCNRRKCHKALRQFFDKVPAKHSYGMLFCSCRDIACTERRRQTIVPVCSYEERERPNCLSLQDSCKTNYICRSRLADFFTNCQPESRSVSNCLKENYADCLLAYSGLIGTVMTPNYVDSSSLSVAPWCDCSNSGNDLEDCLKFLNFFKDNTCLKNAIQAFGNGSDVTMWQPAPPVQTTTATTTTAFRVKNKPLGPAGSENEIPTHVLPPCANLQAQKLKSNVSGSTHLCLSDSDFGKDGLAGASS
As to the kind of experiment: 50 pM [125I]GDNF on NGR-38 cells with or without excess unlabeled GDNF, gamma counting. The protocol: (§1) Neuro-2a cells were transfected with a mammalian expression vector containing the rat GDNFR-α cDNA (such as the expression plasmid described above). Three clonal lines, NGR-16, NGR-33, and NGR-38 were tested for their ability to bind [¹²⁵I]GDNF. The unbound [¹²⁵I]GDNF was removed at the end of the incubation and the amount of radioactivity associated with the cells was determined as described in Experimental Procedures. […] Binding could be effectively competed by the addition of 500 nM unlabeled GDNF.
(§2) Neuro-2a cells (ATCC #CCL 131) were transfected with an expression plasmid, as described above, using the Calcium Phosphate Transfection System (GIBCO/BRL) according to the manufacturer's directions. Transfected cells were selected for expression of the plasmid by growth in 400 μg/mL G418 antibiotic (Sigma). G418 resistant clones were expanded and assayed for GDNFR-α expression by binding to [¹²⁵I]GDNF (Amersham, Inc., custom iodination, catalog #IMQ1057). Cells from each clone were seeded at a density of 3×10⁴ cells/cm² in duplicate wells of 24-well tissue culture plates (Becton Dickinson) pre-coated with polyornithine. […] Cells were then washed four times with ice-cold washing buffer, lysed in 1 M NaOH, and the cell-associated radiolabel quantitated in a 1470 Wizard Automated Gamma Counter (Wallac Inc.). […]

Assay [2] deals with T2, human GDNFR-α Related Receptor 2 (GRR2), endogenously expressed on LA-N-5 neuroblastoma cells (human, UniProt O00451 22-444).
T2 construct: whole, on cells; GDNFR-α mRNA was not detected; The cells also express Ret; also called hGRR2
T2 sequence (looked up): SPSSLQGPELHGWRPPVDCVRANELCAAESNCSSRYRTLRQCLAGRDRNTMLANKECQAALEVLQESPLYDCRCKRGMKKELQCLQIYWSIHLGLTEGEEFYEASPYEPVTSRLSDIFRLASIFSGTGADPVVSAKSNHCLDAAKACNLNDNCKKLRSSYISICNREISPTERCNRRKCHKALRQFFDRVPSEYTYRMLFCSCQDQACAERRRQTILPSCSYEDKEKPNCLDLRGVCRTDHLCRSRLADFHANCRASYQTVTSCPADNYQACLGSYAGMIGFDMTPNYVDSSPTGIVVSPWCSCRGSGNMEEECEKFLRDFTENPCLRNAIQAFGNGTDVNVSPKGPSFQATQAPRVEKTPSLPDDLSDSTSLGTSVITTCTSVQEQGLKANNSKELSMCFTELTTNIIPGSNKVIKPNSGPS
In words: summary of Example 10 (cell binding and cross-linking).

Assay [3] deals with T1, rat GDNF receptor-alpha (GDNFR-α) …. As to the kind of experiment: 50 pM [125I]GDNF on NGR-33 cells with or without excess unlabeled GDNF, gamma counting. As for the experimental part:
as §1, §2

For assay [4] the target is unchanged. In words: Scatchard analysis of GDNF binding to 293T cells transfected with a GDNFR-α cDNA clone in pBKRSV; low affinity site.
For assay [5] the target is unchanged. In words: GDNF binding to 293T cells expressing GDNFR-α; low affinity sites.
For assay [6] the target is unchanged. As to the kind of experiment: GDNF binding to 293T cells expressing GDNFR-α; high affinity sites.
For assay [7] the target is unchanged. As to the kind of experiment: 50 pM [125I]GDNF on NGR-16 cells with or without excess unlabeled GDNF, gamma counting. As for the experimental part:
as §1, §2

For assay [8] the target is unchanged. As to the kind of experiment: equilibrium binding of [125I]GDNF to NGR-38 cells, Scatchard plot; low affinity site. As for the experimental part: (§3) Following incubation, unbound [¹²⁵I]GDNF was removed and the radioactivity associated with the cells was determined as described in Experimental Procedures. Results are depicted in FIG. 7: (A) Equilibrium binding of [¹²⁵I]GDNF to NGR-38 cells (circles) and Neuro-2a cells (squares) in the presence (open circles and open squares) or absence (filled circles and filled squares) of unlabeled GDNF; (B) Scatchard analysis of [¹²⁵I]GDNF binding to NGR-38 cells.
as §2

The target is the same in assay [9]. In words: equilibrium binding of [125I]GDNF to NGR-38 cells, Scatchard plot; high affinity site. As for the experimental part:
as §3, §2

By Kd is commonly meant the equilibrium constant for the complex coming apart.

B1: glial cell line-derived neurotrophic factor (GDNF), recombinant human (ligand, UniProt P39905 78-211, looked up)
chain: SPDKQMAVLPRRERNRQAAAANPENSRGKGRRGQRGKNRGCVLTAIHLNVTDLGLGYETKEELIFRYCSGSCDAAETTYDKILKNLSRNRRLVSDKVGQACCRPIAFDDDLSFLDDNLVYHILRKHSAKRCGCI
modifications: radio-iodinated ([125I]) in the binding and cross-linking assays; unlabeled as competitor and in the phosphorylation assays
notes: mature; also called unlabeled GDNF
B1: the entries for the “ratio of [125I]GDNF bound in the absence and presence of unlabeled GDNF” value in assay [1], in assay [3] and in assay [7] were 16, 8 and 12.8, respectively. In addition, the binding result in assay [2] was “binds”. Besides, the Kd is roughly 0.5 nM in assay [4]; roughly 0.2 nM in assay [5]; roughly 0.002 nM in assay [6]; 0.332 nM in assay [8]; 0.0015 nM in assay [9].

B2: neurturin, recombinant human (ligand, UniProt Q99748 96-197, looked up)
chain: ARLGARPCGLRELEVRVSELGLGYASDETVLFRYCAGACEAAARVYDLGLRRLRQRRRLRRERVRAQPCCRPTAYEDEVSFLDAHSRYHTVHELSARECACV
modifications: radio-iodinated ([125I]) in the binding and cross-linking assays; unlabeled as competitor and in the phosphorylation assays
notes: mature; also called NTN
Regarding B2, the binding result in assay [2] is listed as “binds”.

For the origin of these results see patent publication US20040235714A1 (Amgen, published 2004).
